Assay results reported in patent US9328334B2, “Luciferase derived from lucidina accensa” (OLYMPUS CORPORATION, priority 2011, dated 2016).
“Also recorded” adds a separate entry of the source.

How the values were obtained:
[1] = Measurement of light emission spectra of purified luciferase under various pH environments; type: biochemical; conditions: light emission spectra at various pH
Method: With use of LumiFlSpectroCapture (manufactured by ATTO Corporation) as an apparatus for measurement, to a solution of 0.1 M citric acid/0.1 M Na2HPO4 buffer (pH 5.5 to 8.0) containing 1 mM of D-luciferin, 2 mM of ATP and 4 mM of MgCl2 the purified enzyme was added at a final concentration of 1 μg/mL, and after 15 seconds of addition of the enzyme luminescence spectra was measured. The measurement results were illustrated in FIG. 1.
After that, each of thus-prepared genes (SEQ ID NOs: 38 and 39) was introduced into pRSET-B vector according to the same method as the Example 2. This vector was transformed to E. coli JM109 (DE3) strain to express the mutant luciferase. Subsequently, the mutant luciferase was purified from E. coli. In addition, under various pH environments, the light emission spectrum was measured according to the same method as the Example 2 from a light emitting reaction catalyzed by the mutant luciferase.

[2] = Measurement of Km for D-luciferin; type: biochemical; conditions: 0.1 M Tris-HCl pH 8.0, ATP and MgSO4 present
Method: Eight types of D-luciferin solution of various concentrations were prepared by adding D-luciferin to 0.1 M Tris-HCl (pH 8.0). These solutions contain D-luciferin at final concentrations of 0.625, 1.25, 2.5, 5, 10, 20, 40, and 80 μM. These D-luciferin solutions were aliquoted into 96-well microplate at a volume of 50 μL each. A solution of 0.1 M Tris-HCl (pH 8.0) containing each of the purified luciferase, 4 mM of ATP, and 8 mM of MgSO4 was connected to the standard pump of the luminometer, and the measurements was carried out at the same time as addition of 50 μL of the solution to the well. A Luminescensor (manufactured by ATTO Corporation) was used for the measurements. Measurements were repeated 3 times for each luciferin concentration.
(§1) The peak intensity of the obtained photon count value was plotted with respect to luciferin concentration S, defining the initial rate as V. The plots were subjected to curve fitting of Michaelis Menten type, thereby giving Km values. The curve fitting was performed by a nonlinear least-squares method, and the search of the parameter was performed by a Newton method.

[3] = Measurement of Km value with respect to ATP; type: biochemical; conditions: 0.1 M Tris-HCl pH 8.0, D-luciferin and MgSO4 present
Method: Various 8 types of ATP solutions with different concentrations were prepared by adding ATP to 0.1 M Tris-HCl (pH 8.0). These solutions contain ATP at final concentration of 10, 20, 40, 80, 160, 320, 480, and 640 μM. These ATP solutions were aliquoted into a 96-well microplate at a volume of 50 μl each. 0.1 M Tris-HCl (pH 8.0) solution containing each purified luciferase, 1 mM of D-luciferin, and 8 mM of MgSO4 was connected to a standard pump of a luminometer, and the measurement was carried out at the same time as addition of 50 μL of the solution to wells. Measurement was repeated 3 times for each ATP concentration.
as §1, with “peak intensities” for “peak intensity”, “value were” for “value was”, “to ATP” for “to luciferin”, “S, with an” for “S, defining the”, “rate” for “rate as”, “Km value.” for “Km values.”

HeLa cell = experiment: Luminescence intensity of luciferase expressed in HeLa cell, comparison with P. pyralis luciferase (Example 3); type: cell-based; conditions: 2 mM D-luciferin, 25° C., 90 min after starting measurement
Method: Each of the wild type luciferase derived from L. accensa, the mutant luciferase derived from L. accensa (N50D and 1530R), and the luciferase derived from P. pyralis (SEQ ID NO: 33) was expressed in a HeLa cell, and the luminescence intensity was measured and compared to each other.
Further, since the pF9A vector contains the luciferase gene derived from Renilla reniformis as an internal control, it is possible to obtain the luminescence intensity from the luminescent gene inserted to the multicloning site as a ratio compared to the luminescence intensity emitted by the Renilla luciferase.
Three types of plasmids obtained in such a manner described above were each subjected to gene transfection to a HeLa cell, which has been inoculated in a 24-well plate, by a lipofection method, and 24 hours later, the cells were washed with PBS. To each well of a 24-well plate, 500 μL of 2 mM D-luciferin/CO2 Independent Medium (manufactured by Invitrogen) was added and the luminescence intensity was measured for 90 min by using a Luminescensor (manufactured by ATTO Corporation) under the condition including 25° C. and 1 sec per each well. The luminescence intensity which is obtained at the time point of 90 min after starting the measurement was taken as the luminescence intensity of the wild type luciferase, the mutant luciferase, and P. pyralis luciferase. […] Subsequently, 500 μL of 10 μM coelenterazine/CO2 Independent Medium was added to each well and the luminescence intensity was measured for 30 min by using a Luminescensor under the condition including 25° C. and 1 sec per each well. The luminescence intensity obtained at five minutes after the addition of coelenterazine was taken as luminescence intensity of the Renilla luciferase, which is an internal control. Each of the luminescence intensity from the wild type luciferase, the mutant luciferase, and P. pyralis luciferase was divided by the luminescence intensity of the Renilla luciferase, and the results are illustrated as a graph illustrating the luminescence intensity of each luciferase.

[4] = Stability against degradation: SDS-polyacrylamide gel electrophoresis of lysate of E. coli expressing each luciferase (Example 4); conditions: lysate of E. coli BL21 (DE3) CodonPlus expressing the luciferase
Method: Stability against degradation was determined for the wild type luciferase derived from L. accensa in comparison with a known luciferase derived from L. biplagiata.
The above three genes were introduced into an expression vector and expressed in E. coli. The expression was carried out in the same manner as the Example 2 except that BL21 (DE3) CodonPlus (manufactured by Stratagene Corporation) was used as E. coli strain and the cells were cultured appropriately.
The lysate was prepared from the E. coli expressing each gene, and then subjected to SDS-polyacrylamide gel electrophoresis. It was confirmed that, as a band with the biggest size, a single band is present near 70 kDa for all three kinds of protein. […] Meanwhile, in the luciferase derived from L. biplagiata (i.e., left and right lanes), several bands with a size smaller than 70 kDa were identified.

HeLa cells = experiment: Luminescence intensity of luciferase expressed in HeLa cells, comparison with L. biplagiata luciferase (Example 5); type: cell-based; conditions: 37° C.
Source text: The luminescence intensity from the light emitting reaction using the wild type luciferase derived from L. accensa (SEQ ID NO: 1) was compared to the luminescence intensity from the light emitting reaction using the luciferase derived from L. biplagiata having the literature sequence (SEQ ID NO: 30) or the luciferase derived from L. biplagiata having the cloned sequence (SEQ ID NO: 31). Further, based on the difference between the literature sequence and the cloned sequence, the amino acid residue at position 249 of the amino acid sequence of the wild type luciferase, i.e., methionine, was changed to lysine to prepare the mutant luciferase (M249K), which was then used for the intensity measurement.
With regard to the four types of the luciferase, a nucleic acid containing a gene optimized for mammalian cell expression was given with a Kozak sequence, and then inserted between SgfI and PmeI sites within the multicloning site of pF9A CMV hRLuc neo Flexi vector (manufactured by Promega). Further, since the pF9A vector contains the luciferase gene derived from Renilla reniformis as an internal control in the vector sequence, it is possible to obtain the luminescence intensity from the luminescent gene inserted to the multicloning site as a ratio compared to the luminescence intensity emitted by the Renilla luciferase.
Four types of luciferase plasmids obtained in such a manner described above were each subjected to gene transfection to HeLa cells inoculated in a 48-well plate by a lipofection method, and 24 hours later, the cells were washed with PBS. To each well of a 48-well plate, 500 μL of 2 mM D-luciferin/CO2 Independent Medium (manufactured by Invitrogen) was added and the luminescence intensity was measured for 90 min by using a Luminescensor (manufactured by ATTO Corporation) under the condition including 37° C. and 1 sec per each well. The luminescence intensity which is obtained at the time point of 90 min after starting the measurement was taken as the luminescence intensity of each luciferase. […] Subsequently, 500 μL of 10 μM coelenterazine/CO2 Independent Medium was added to each well and the luminescence intensity was measured for 30 min by using a Luminescensor under the condition including 37° C. and 1 sec per each well. The luminescence intensity obtained at five minutes after the addition of coelenterazine was taken as luminescence intensity of the Renilla luciferase, which is an internal control. Each of the luminescence intensities from the luciferases was divided by the luminescence intensity of the Renilla luciferase, yielding the luminescence intensity of each luciferase. The measurements were carried out multiple times for each luciferase, and the luminescence intensity was obtained as a mean value.

B1: wild type luciferase: wild type luciferase obtained from Lucidina accensa, amino acid sequence SEQ ID NO: 1 (protein, listed as Lucidina accensa)
chain: MEEDKNILRGPAPFYPLEDGTAGEQLHRAMKRYALIPGTIAFTDAHAGVNITYSEYFEMACRLAESLKRYGLGLQHRIVVCSENSLQFFMPVVGALFIGVGVAPANDIYNERELLNSMTISQPTLVFCSRKGLQKILNVQKKLPVIQKIIILDTKEDYMGFQSMYSFVDSQLPVGFNEYDYVPDSFDRDQATALIMNSSGSTGLPKGVELNHTSVCVRFSHCRDPVYGNQIIPDTAILSVIPFHHGFGMFTTLGYLICGFRVVLMYRFEEELFLRSLQDYKIQSALLVPTLFSFFAKSTLIDKYDLSNLHEIASGGAPLAKEVGEAVAKRFNLRGIRQGYGLTETTSAVIITPEGDDKPGAVGKVVPFFSAKVVDLDTGKTLGVNQRGELCLKGPMIMKGYVNNPEATNALIDKDGWLHSGDISYWDEDGHFFIVDRLKSLIKYKGYQVPPAELESILLQHPFIFDAGVAGIPDDEAGELPAAVVVLEEGKTMTEKEIMDYVAGQVTTAKRLRGGVVFVDEVPKGLTGKIDARKIREILVKVKKTKSKL
pH environment giving the highest luminescence intensity [1]: 8 pH | Km [2]: 16 µM | Km [3]: 47.6 µM | luminescence intensity (divided by luminescence intensity of Renilla luciferase internal control) (HeLa cell): 7.3 | stability against protein degradation (bands on stained SDS-PAGE gel) [4]: no other band was identified; also recorded: hardly degraded; also recorded: no degradation occurred | luminescence intensity, mean value (divided by Renilla luciferase intensity) (HeLa cells; 2 mM D-luciferin, 90 min): 3.48 | luminescence intensity in comparison to luciferase derived from L. biplagiata having the literature sequence (HeLa cells): ≥ 29 times | luminescence intensity in comparison to mutant luciferase M249K (HeLa cells): ≥ 34.8 times
